In publication PMC8287531 (2021) one finds Kd data, which are given here for one molecule.

The assay has as its target T1, talin R7R8 rod domains (UniProt Q9Y490 1359-1659).
T1 chain: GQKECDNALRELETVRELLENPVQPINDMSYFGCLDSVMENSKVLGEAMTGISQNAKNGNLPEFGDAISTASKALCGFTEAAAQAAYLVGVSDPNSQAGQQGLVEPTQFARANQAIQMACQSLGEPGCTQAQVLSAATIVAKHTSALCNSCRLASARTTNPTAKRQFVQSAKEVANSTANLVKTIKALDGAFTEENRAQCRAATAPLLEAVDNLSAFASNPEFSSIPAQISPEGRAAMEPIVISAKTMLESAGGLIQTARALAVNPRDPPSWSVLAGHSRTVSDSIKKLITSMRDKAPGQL
The assay is described as follows: FP.

Where no end group is shown, it is not given here.

Usually Kd stands for a measure of binding affinity in units of concentration.

B1: RIAM(4-30) peptide, fluorescein-labeled (peptide)
peptide: SEDIDQMFSTLLGEMDLLTQSLGVDTC
modifications: also: fluorescein-labeled, position not given here
B1 had a Kd of 3.6 µM.
